Assay results: publication PMC2532717 (Nucleic Acids Research, 2008)

Target: the molecule itself
Assay: cross-linking

| Protein | binding result | stoichiometry N |
| --- | --- | --- |
| RecA (natural protein, B. subtilis, UniProt P16971 1-348, looked up) MSDRQAALDMALKQIEKQFGKGSIMKLGEKTDTRISTVPSGSLALDTALGIGGYPRGRIIEVYGPESSGKTTVALHAIAEVQQQGGQAAFIDAEHALDPVYAQKLGVNIEELLLSQPDTGEQALEIAEALVRSGAVDIVVVDSVAALVPKAEIEGDMGDSHVGLQARLMSQALRKLSGAINKSKTIAIFINQIREKVGVMFGNPETTPGGRALKFYSSVRLEVRRAEQLKQGNDVMGNKTKIKVVKNKVAPPFRTAEVDIMYGEGISKEGEIIDLGTELDIVQKSGSWYSYEEERLGQGRENAKQFLKENKDIMLMIQEQIREHYGLDNNGVVQQQAEETQEELEFEE | binds | – |
| RecUK56A (enzyme, B. subtilis) MIRYPNGKTFQPKHSVSSQNSQKRAPSYSNRGMTLEDDLNETNKYYLTNQIAVIHAKPTPVQIVNVHYPKRSAAVIKEAYFKQSSTTDYNGIYKGRYIDFEAKETKNKTSFPLQNFHDHQIEHMKQVKAQDGICFVIISAFDQVYFLEADKLFYFWDRKEKNGRKSIRKDELEETAYPISLGYAPRIDYISIIEQLYFSPSSGAKG | – | 2 |
| RecUR71A (enzyme, B. subtilis) MIRYPNGKTFQPKHSVSSQNSQKRAPSYSNRGMTLEDDLNETNKYYLTNQIAVIHKKPTPVQIVNVHYPKASAAVIKEAYFKQSSTTDYNGIYKGRYIDFEAKETKNKTSFPLQNFHDHQIEHMKQVKAQDGICFVIISAFDQVYFLEADKLFYFWDRKEKNGRKSIRKDELEETAYPISLGYAPRIDYISIIEQLYFSPSSGAKG | – | 2 |
